By Km is commonly meant the concentration of substrate that gives half-maximal velocity. For orientation: kcat means the maximal rate divided by the concentration of active sites.

For data set [1], the system named is T1, Nc1nc2c(ncn2[C@@H]2O[C@H](COP(=O)(O)OP(=O)(O)OP(=O)(O)O)[C@@H](O)[C@H]2O)c(=O)[nH]1.
T1 construct: Roc-COR-kinase fragment, AA 1334-2147, N-terminal His-tag, expressed in Sf9 cells, Ni-NTA purified
The data set is described as follows: multiple turnover radioactive charcoal GTPase assay, Michaelis-Menten fit. The data set is classed as biochemical, Chlorobaculum tepidum. Particulars: 100 nM protein, 50 mM NaCl, 20 mM Tris/HCl, 10 mM MgCl2, 1 mM DTT, 0.5 mg/ml BSA, pH 7.5, 25°C, labelled compound (gamma-32P).

Data set [2] shares this test system. The data set is described as above. Type of data set: biochemical, C. tepidum. To be noted: 100 nM protein, 50 mM NaCl, 20 mM Tris/HCl, 10 mM MgCl2, 1 mM DTT, 0.5 mg/ml BSA, pH 7.5, 25°C, labelled compound (gamma-32P).

Sequence of LRRK2 Roc-COR-kinase fragment (Homo sapiens) (chain, as listed by the source): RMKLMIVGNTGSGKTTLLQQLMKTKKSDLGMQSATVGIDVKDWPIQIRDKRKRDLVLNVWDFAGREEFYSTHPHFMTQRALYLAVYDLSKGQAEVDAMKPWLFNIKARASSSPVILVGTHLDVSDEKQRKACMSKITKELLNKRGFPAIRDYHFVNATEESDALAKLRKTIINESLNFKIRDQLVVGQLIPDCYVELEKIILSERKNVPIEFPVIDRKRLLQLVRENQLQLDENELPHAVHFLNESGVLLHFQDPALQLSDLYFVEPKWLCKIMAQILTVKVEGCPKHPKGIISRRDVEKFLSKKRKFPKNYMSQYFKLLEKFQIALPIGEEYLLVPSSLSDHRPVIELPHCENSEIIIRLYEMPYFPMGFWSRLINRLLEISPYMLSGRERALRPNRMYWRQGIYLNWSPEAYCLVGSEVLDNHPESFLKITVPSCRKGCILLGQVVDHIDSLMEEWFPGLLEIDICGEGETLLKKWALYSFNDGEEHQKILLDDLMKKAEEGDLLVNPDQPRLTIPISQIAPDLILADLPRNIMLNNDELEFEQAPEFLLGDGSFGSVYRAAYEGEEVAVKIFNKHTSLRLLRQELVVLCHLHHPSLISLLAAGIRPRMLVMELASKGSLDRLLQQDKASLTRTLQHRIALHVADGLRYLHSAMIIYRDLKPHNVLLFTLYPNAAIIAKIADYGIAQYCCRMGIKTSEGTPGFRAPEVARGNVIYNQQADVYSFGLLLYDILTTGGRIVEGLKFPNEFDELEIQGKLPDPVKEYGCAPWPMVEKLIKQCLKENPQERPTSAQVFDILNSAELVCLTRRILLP
Sequence of LRRK2 Roc-COR-kinase fragment (Homo sapiens; R1441C) (chain, as listed by the source R1441C): as the sequence (chain, as listed by the source) above, with R108C counted along it

Consider “LRRK2 Roc-COR-kinase fragment (Homo sapiens; R1441C)”, for which, in data set [1], the Km stood at 541 µM and the kcat was 0.00617 s⁻¹.

On to “LRRK2 Roc-COR-kinase fragment (Homo sapiens)”, for which, in data set [2], the Km was determined as 343 µM and the kcat worked out at 0.013 s⁻¹.

For the origin of these results see paper PMC4721548, “Conformational heterogeneity of the Roc domains in C. tepidum Roc–COR and implications for human LRRK2 Parkinson mutations” (Bioscience Reports, 2015).
